Measured values published in PMC3199332.

Substrate: CC(C)=CCNc1ncnc2nc[nH]c12
Experiment: UV absorbance steady-state kinetics
Type: biochemical, Paraglaciecola sp. T6c
Settings: hydrolytic deamination; compound 1 identified by kcat/Km 1.2 × 10^7

B1: Patl2390 (Paraglaciecola sp. T6c) (protein)
chain: MQTQPLDIQQFISDMPKAELHVHLEGTLEPELSFALAVKNRIPLEFDTPEQLIAAYDFHDLPSFLKIYYAGMNVLIKEEDFYQLTWDYLTKAASENIVYAELFFDPQAHTSRGVSFETIITGIHKAQLDAEQKLGIRSQLIMCFLRELSAESAMEHLKLAMPYLPWLVGVGLDSNERDNPPAKFAEVFEYAKALDLKLTMHCDVNQHNTLVHIKQCLDDIQVDRIDHGVNALQDPALLEKIKHKQLGLTVCPISNRFVVQSLTSNEVRQMLEHELLVTINSDDPAYFRAYLNENFIELQKEGQFSAQEMITLVENAFKVSWLKDTEISQYLYQVSQYVKQAEYQAA
Q: For B1, which kcat is on record?
A: Its kcat is 7.3 ± 0.1 s⁻¹.

Q: And the kcat/Km?
A: Its kcat/Km is 1.2e+07 M⁻¹ s⁻¹.
